Assays:
[1] = target: T1, AnkB 28–847 (MBD + partial AI-c) (human, UniProt Q01484-2 28-847); experiment: ITC; VP-ITC MicroCal, 25 °C; proteins in 50 mM Tris-HCl pH 7.8, 1 mM DTT, 1 mM EDTA with 100 mM or 500 mM NaCl as required; who was titrated is not told; details: both partners purified
T1 construct: ankyrin-B (AnkB), human 220 kDa isoform, residues 28-847: MBD and a short 20-residue linker; numbers count on: human 220 kDa AnkB NM_020977.3; also called extended MBD with a short 20-residue linker; source: E. coli BL21 (DE3), purified (Ni2+-NTA, size exclusion)
T1 sequence (looked up): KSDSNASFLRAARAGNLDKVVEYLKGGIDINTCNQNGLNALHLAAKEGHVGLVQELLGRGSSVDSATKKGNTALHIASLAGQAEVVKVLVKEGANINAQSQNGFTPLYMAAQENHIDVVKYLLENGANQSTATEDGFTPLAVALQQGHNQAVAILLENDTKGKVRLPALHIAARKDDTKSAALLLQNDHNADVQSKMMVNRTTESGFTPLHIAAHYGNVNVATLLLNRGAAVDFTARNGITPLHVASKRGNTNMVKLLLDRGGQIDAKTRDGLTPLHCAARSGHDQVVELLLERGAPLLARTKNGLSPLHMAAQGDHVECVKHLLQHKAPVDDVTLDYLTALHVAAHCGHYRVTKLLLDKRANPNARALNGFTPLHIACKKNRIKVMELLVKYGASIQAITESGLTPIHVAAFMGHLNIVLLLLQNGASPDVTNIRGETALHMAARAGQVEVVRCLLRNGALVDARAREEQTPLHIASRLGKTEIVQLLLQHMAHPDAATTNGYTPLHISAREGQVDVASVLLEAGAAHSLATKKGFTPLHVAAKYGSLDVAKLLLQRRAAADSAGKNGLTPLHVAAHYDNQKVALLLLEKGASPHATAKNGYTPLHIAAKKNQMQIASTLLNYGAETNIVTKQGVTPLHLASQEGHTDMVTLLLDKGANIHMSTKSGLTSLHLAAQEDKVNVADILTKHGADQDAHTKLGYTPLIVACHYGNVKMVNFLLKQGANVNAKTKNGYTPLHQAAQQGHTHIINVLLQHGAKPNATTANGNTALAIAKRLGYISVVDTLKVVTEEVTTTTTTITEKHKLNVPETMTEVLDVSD

[2] = target: T2, AnkG 38–855 (AnkG MBD-AI-c protein; MBD + partial AI-c) (rat, UniProt O70511-1 38-855); experiment: as above; details: both partners purified
T2 construct: numbers count on: rat AnkG NM_001033984.1 (MBD-UPA); also called AnkG WT; source: E. coli BL21 (DE3), purified (Ni2+-NTA, size exclusion)
T2 sequence (looked up): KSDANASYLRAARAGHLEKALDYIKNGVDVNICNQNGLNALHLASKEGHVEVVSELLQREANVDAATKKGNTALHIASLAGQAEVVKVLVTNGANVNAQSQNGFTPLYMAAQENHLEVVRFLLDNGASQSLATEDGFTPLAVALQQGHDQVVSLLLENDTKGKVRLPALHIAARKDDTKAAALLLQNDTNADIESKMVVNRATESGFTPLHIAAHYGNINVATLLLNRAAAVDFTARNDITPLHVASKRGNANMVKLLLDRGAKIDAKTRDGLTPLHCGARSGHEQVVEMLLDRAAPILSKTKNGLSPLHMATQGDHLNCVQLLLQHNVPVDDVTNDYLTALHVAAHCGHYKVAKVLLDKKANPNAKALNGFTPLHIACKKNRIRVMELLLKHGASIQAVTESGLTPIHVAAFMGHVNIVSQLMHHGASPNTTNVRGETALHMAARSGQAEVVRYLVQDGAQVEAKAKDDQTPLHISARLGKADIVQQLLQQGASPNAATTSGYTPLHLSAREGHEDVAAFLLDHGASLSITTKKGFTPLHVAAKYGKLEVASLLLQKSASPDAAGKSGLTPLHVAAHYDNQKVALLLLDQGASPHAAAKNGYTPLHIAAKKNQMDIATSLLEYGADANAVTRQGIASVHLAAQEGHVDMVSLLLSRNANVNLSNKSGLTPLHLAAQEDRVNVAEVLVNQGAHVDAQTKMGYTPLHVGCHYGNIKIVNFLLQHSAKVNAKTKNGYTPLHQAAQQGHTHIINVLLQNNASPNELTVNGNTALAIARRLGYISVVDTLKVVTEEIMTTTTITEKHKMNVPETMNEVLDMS

binding result [1]: binds | binding result [2]: binds
B1: Nav1.2 (aa 1035–1129) (domain or fragment, mouse, UniProt B1AWN6 1035-1129, looked up)
chain: KALDEIKPLEDLNNKKDSCISNHTTIEIGKDLNYLKDGNGTTSGIGSSVEKYVVDESDYMSFINNPSLTVTVPIAVGESDFENLNTEEFSSESDM
notes: source: E. coli BL21 (DE3), purified (Ni2+-NTA, size exclusion)

Reference: publication PMC5779224, “Autoinhibition of ankyrin-B/G membrane target bindings by intrinsically disordered segments from the tail regions” (eLife, 2017)
